Laboratory results taken from patent US20220259289A1 (Janssen / Centocor, published 2022).

B1: ISOP120GR5P1F5 (designed binder, not shown: small tags and cut ends)
chain: LPAPKNLVVSRVTEDSARLSWTAPDAAFDSFEIDYWEVESEGEAIVLFVPGSERSYDLTGLKPGTEYHVHIVGVKGGTPSYPLWADFTT
notes: FN3 domain (Centyrin); tested as E. coli lysate
B2: ISOP193GR9P1F6 (designed binder, not shown: small tags and cut ends)
chain: LPAPKNLVVSRVTEDSARLSWTAPDAAFDSFEIDYWEVESEGEAIVLFVPGSERSYDLTGLKPGTEYHVHIVGVKGGTPSYPLWADFTT
B3: ISOP120GR5P1E7 (designed binder, not shown: small tags and cut ends)
chain: LPAPKNLVVSRVTEDSARLSWTAPDAAFDSFEIDYWEVESEGEAIILFVPGSERSYDLTGLKPGTEYHVHIVGVKGGTPSYPLWADFTT
notes: as for B1
B4: ISOP193GR9P1G9 (designed binder, not shown: small tags and cut ends)
chain: LPAPKNLVVSRVTEDSARLSWTAPDAAFDSFAIFYHEFANSGEAIDLPVPGSERSYDLTGLKPGTEYDVRIYGVKGGTASIPLDAEFTT
B5: ISOP193GR9P1B3 (designed binder, not shown: small tags and cut ends)
chain: LPAPKNLVVSRVTEDSARLSWTAPDAAFDSFAIGYVEWTANGEAIVLIVPGSERSYDLTGLKPGTEYVVRIRGGVKGGDSSFPLRADFTT
B6: ISOP193FR9P1E1 (designed binder, not shown: small tags and cut ends)
chain: LPAPKNLVVSRVTEDSARLSWTAPDAAFDSFIIRYLEDISYGEAIVLTVPGSERSYDLTGLKPGTEYHVGIEGVKGGNVSWPLSAIFTT
B7: ISOP193FR9P1D1 (designed binder, not shown: small tags and cut ends)
chain: LPAPKNLVVSRVTEDSARLSWTAPDAAFDSFFIQYLEDVTNGEAIVLTVPGSERSYDLTGLKPGTEYRVPIAGVKGGRDSQPLSAIFTT
B8: ISOP193HR9P1E3 (designed binder, not shown: small tags and cut ends)
chain: LPAPKNLVVSRVTEDSARLSWTAPDAAFDSFEIYYFELRLGGEAIVLTVPGSERSYDLTGLKPGTEYLVTIYGVKGGAYSNPLSAIFTT
B9: ISOP193ER9P1H3 (designed binder, not shown: small tags and cut ends)
chain: LPAPKNLVVSRVTEDSARLSWTAPDAAFDSFEIYYLEVRNRGEAIVLTVPGSERSYDLTGLKPGTEYHVGIAGVKGGFHSFPLSAIFTT
B10: ISOP193HR9P1G5 (designed binder, not shown: small tags and cut ends)
chain: LPAPKNLVVSRVTEDSARLSWTAPDAAFDSFDIYYYELRLGGEAIVLTVPGSERSYDLTGLKPGTEYLVTIYGVKGCAASDPLSAIFTT
B11: ISOP193HR9P1G10 (designed binder, not shown: small tags and cut ends)
chain: LPAPKNLVVSRVTEDSARLSWTAPDAAFDSFEIYYFELRLGGEAIVLTVPGSERSYDLTGLKPGTEYLVTIYGVKGGDYSPPLSAISTT
B12: ISOP193HR9P1H7 (designed binder, not shown: small tags and cut ends)
chain: LPAPKNLVVSRVTEDSARLSWTAPDAAFDSFEIYYREPHYGGEAIVLTVPGSERSYDLTGLKPGTEYWVTIYGVKVCLGSNPLSAIFTT
B13: ISOP193HR9P1G6 (designed binder, not shown: small tags and cut ends)
chain: LPAPKNLVVSRVTEDSARLSWTAPDAAFDSFDIYYYELRLGGEAIVLTVPGSERSYDLTGLKPGTEYLVTIYGVKVCEQSYPLSAISTT
B14: ISOP193HR9P1G4 (designed binder, not shown: small tags and cut ends)
chain: LPAPKNLVVSRVTEDSARLSWTAPDAAFDSFEIYYFELRLGGEAIVLTVPGSERSYDLTGLKPGTEYLVTIYGVKGGDYSPPLSAIFTT
B15: ISOP193HR9P1H10 (designed binder, not shown: small tags and cut ends)
chain: LPAPKNLVVSRVTEDSARLSWTAPDAAFDSFDIYYYELRLGGEAIVLTVPGSERSYDLTGLKPGTEYLVTIYGVKVCLGSNPLSAIFTT
B16: ISOP193HR9P1E8 (designed binder, not shown: small tags and cut ends)
chain: LPAPKNLVVSRVTEDSARLSWTAPDAAFDSFDIYYYELRLGGEAIVLTVPGSERSYDLTGLKPGTEYLVTIYGVKGGDYSPPLSAIFTT
B17: ISOP193HR9P1F8 (designed binder, not shown: small tags and cut ends)
chain: LPAPKNLVVSRVTEDSARLSWTAPDAAFDSFDIYYYELRLGGEAIVLTVPGSERSYDLTGLKPGTEYLVTIYGVKVCYYSTPLSAIFTT
B18: ISOP193HR9P1F10 (designed binder, not shown: small tags and cut ends)
chain: LPAPKNLVVSRVTEDSARLSWTAPDAAFDSFDIYYYELRLGGEAIVLTVPGSERSYDLTGLKPGTEYLVTIYGVKGGYYSGPLSAIFTT
B19: ISOP193GR9P1H2 (designed binder, not shown: small tags and cut ends)
chain: LPAPKNLVVSRVTEDSARLSWTAPDAAFDSFEIPYIEVETIGEAIWLHVPGSERSYDLTGLKPGTEYSVGINGVKGGHTSNPLSARFTT
B20: ISOP193GR9P1E10 (designed binder, not shown: small tags and cut ends)
chain: LPAPKNLVVSRVTEDSARLSWTAPDAAFDSFAISYTESIRQGEAIWLWVPGSERSYDLTGLKPGTEYEVTIGGVKGGIRSYPLWAWFTT
B21: ISOP193ER9P1F11 (designed binder, not shown: small tags and cut ends)
chain: LPAPKNLVVSRVTEDSARLSWTAPDAAFDSFAIQYQEYVAHGEAIVLTVPGSERSYDLTGLKPGTEYHVRISGVKGGGVSWPLSAISTT
B22: ISOP193GR9P1F7 (designed binder, not shown: small tags and cut ends)
chain: LPAPKNLVVSRVTEDSARLSWTAPDAAFDSFDIPYVEYYPSGEAIVLNVPGSERSYDLTGLKPGTEYGVTIWGIKGGNESVPLTARFTT
B23: ISOP120GR5P1H6 (designed binder, not shown: small tags and cut ends)
chain: LPAPKNLVVSRVTEDSARLSWTNEQITKYGFDSFLIQYQESEKVGEAIVLTVPGSERSYDLTGLKPGTEYTVSIYGVGRHYTVYDSNPLSAIFTT
notes: as for B1
B24: ISOP120AR5P1F11 (designed binder, not shown: small tags and cut ends)
chain: LPAPKNLVVSRVTEDSARLSWTNEQITKYGFDSFLIQYQESEKVGEAIVLTVPGSERSYDLTGLKPATEYTVSIYGVGRHYTVYDSNPLSAIFTT
notes: as for B1
B25: ISOP120AR5P1G7 (designed binder, not shown: small tags and cut ends)
chain: LPAPKNLVVSRVTEDSARLSWSQHYLSPIPFDSFLIQYQESEKVGEAIVLTVPGSERSYDLTGLKPGTEYTVSIYGVGRHYTVYDSNPLSAIFTT
notes: as for B1

Legend:
[1] = target: T1, recombinant biotinylated human CD137 protein (Fc-fusion protein, R&D Systems 838-4B) (human, UniProt Q07011 24-186, biotinylated (site not stated)); experiment: ELISA, bacterial lysate on plate-bound antigen, luminescence
T1 construct: Bought Fc fusion; The ELISA used the same antigen as the panning; also called CD137-Fc; biotinylated CD137; not shown: Fc part of the bought fusion protein
Method: (§1) Streptavidin-coated Maxisorp plates (Nunc catalog 436110) were blocked for 1 h in Starting Block T20 (Pierce) and then coated with biotinylated CD137 (using same antigen as in panning) or negative controls (an unrelated Fc-fused recombinant protein and human serum albumin) for 1 h. Plates were rinsed with TBST and diluted lysate was applied to plates for 1 h. Following additional rinses, wells were treated with HRP-conjugated anti-Centyrin antibody (PAB25) for 1 h and then assayed with POD (Roche catalog 11582950001).

human serum albumin [2] = target: T2, human serum albumin (human, UniProt P02768 25-609); experiment: as above
T2 construct: Negative control antigen of the screening ELISA; also called HSA
Method: as §1
T2 sequence (P02768 25-609 limits assumed): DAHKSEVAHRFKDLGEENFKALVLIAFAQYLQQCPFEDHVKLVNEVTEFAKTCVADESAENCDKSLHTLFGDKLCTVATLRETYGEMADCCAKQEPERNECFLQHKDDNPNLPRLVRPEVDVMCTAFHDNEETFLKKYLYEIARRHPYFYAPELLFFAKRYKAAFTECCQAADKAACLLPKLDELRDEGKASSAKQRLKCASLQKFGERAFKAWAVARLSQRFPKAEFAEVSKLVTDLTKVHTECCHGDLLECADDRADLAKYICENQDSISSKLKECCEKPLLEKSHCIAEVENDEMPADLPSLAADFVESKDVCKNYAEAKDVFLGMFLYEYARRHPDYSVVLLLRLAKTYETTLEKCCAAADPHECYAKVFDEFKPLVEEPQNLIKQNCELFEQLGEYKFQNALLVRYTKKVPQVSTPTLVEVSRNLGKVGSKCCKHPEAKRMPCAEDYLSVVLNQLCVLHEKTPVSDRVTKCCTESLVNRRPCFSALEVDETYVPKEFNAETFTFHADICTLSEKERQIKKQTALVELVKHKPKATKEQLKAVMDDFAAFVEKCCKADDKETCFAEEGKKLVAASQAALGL

[3] = target: unrelated Fc-fused recombinant protein (negative control); experiment: as above
human serum albumin [4] = target: T3, human serum albumin (human, UniProt P02768 25-609); experiment: ELISA, negative control HSA
T3 construct: Negative control of the ELISA; also called HSA
Method: as §1
T3 sequence (P02768 25-609 limits assumed): as above

[5] = target: T4, recombinant biotinylated CD137 protein (Fc-fusion protein, R&D Systems 838-4B) (human, UniProt Q07011 24-186, biotinylated, sites not stated); experiment: ELISA, lysate on biotinylated CD137-Fc
T4 construct: Bought Fc fusion; also called CD137-Fc
Method: as §1

[6] = target: unrelated Fc-fused recombinant protein; experiment: ELISA, negative control Fc protein

Binder | ELISA CD137-Fc (RLU) [1] [RLU] | ELISA HSA (RLU) (human serum albumin [2]) | ELISA Fc Control (RLU) [3] [RLU] | ELISA HSA (RLU) (human serum albumin [4]) | ELISA CD137 (RLU) [5] [RLU] | ELISA Fc Control (RLU) [6] [RLU]
B1 | 1.28e+06 | 400 | 400 | – | – | –
B2 | – | – | – | 400 | 9.85e+06 | 1360
B3 | 1.13e+06 | 480 | 400 | – | – | –
B4 | – | – | – | 480 | 3.05e+06 | 960
B5 | – | – | – | 320 | 3.46e+06 | 880
B6 | – | – | – | 880 | 1.16e+07 | 2000
B7 | – | – | – | 640 | 8.13e+06 | 1680
B8 | – | – | – | 640 | 1.78e+07 | 1120
B9 | – | – | – | 400 | 1.05e+07 | 1520
B10 | – | – | – | 3360 | 1.51e+07 | 24200
B11 | – | – | – | 800 | 1.56e+07 | 1360
B12 | – | – | – | 13700 | 4.6e+06 | 49800
B13 | – | – | – | 1200 | 1.15e+07 | 8160
B14 | – | – | – | 560 | 1.72e+07 | 960
B15 | – | – | – | 10100 | 1.48e+07 | 43900
B16 | – | – | – | 1520 | 1.63e+07 | 3120
B17 | – | – | – | 6080 | 1.61e+07 | 31300
B18 | – | – | – | 960 | 1.58e+07 | 1280
B19 | – | – | – | 640 | 5.31e+06 | 1360
B20 | – | – | – | 480 | 1.05e+07 | 1360
B21 | – | – | – | 400 | 1.12e+07 | 2240
B22 | – | – | – | 400 | 3.48e+06 | 880
B23 | 721000 | 400 | 400 | – | – | –
B24 | 715000 | 320 | 480 | – | – | –
B25 | 568000 | 480 | 560 | – | – | –
